To fix the notation:
T1: TNFR1 (Homo sapiens, UniProt P19438)
T1 chain: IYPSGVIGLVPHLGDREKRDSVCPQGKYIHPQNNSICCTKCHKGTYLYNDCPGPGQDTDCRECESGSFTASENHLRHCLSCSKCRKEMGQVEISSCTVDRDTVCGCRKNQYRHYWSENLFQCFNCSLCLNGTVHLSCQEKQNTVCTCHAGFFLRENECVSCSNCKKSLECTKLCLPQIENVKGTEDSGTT

B1: Q48E (designed binder)
chain: MTLQELLREEALRRAEAEAFRYALELLAEKFPEQKEYLLDLAEEIESEIRSLSGVDVEDVRKFLDKEWAWVKELLAEHPAELAEVEAARAARLAELRAEVEAKVAA
B2: I45Q (designed binder)
chain: MTLQELLREEALRRAEAEAFRYALELLAEKFPEQKEYLLDLAEEQESQIRSLSGVDVEDVRKFLDKEWAWVKELLAEHPAELAEVEAARAARLAELRAEVEAKVAA
B3: I49S (designed binder)
chain: MTLQELLREEALRRAEAEAFRYALELLAEKFPEQKEYLLDLAEEIESQSRSLSGVDVEDVRKFLDKEWAWVKELLAEHPAELAEVEAARAARLAELRAEVEAKVAA
B4: E29V (designed binder)
chain: MTLQELLREEALRRAEAEAFRYALELLAVKFPEQKEYLLDLAEEIESQIRSLSGVDVEDVRKFLDKEWAWVKELLAEHPAELAEVEAARAARLAELRAEVEAKVAA
B5: L39K (designed binder)
chain: MTLQELLREEALRRAEAEAFRYALELLAEKFPEQKEYLKDLAEEIESQIRSLSGVDVEDVRKFLDKEWAWVKELLAEHPAELAEVEAARAARLAELRAEVEAKVAA
B6: A88R (designed binder)
chain: MTLQELLREEALRRAEAEAFRYALELLAEKFPEQKEYLLDLAEEIESQIRSLSGVDVEDVRKFLDKEWAWVKELLAEHPAELAEVEARRAARLAELRAEVEAKVAA
B7: L75C (designed binder)
chain: MTLQELLREEALRRAEAEAFRYALELLAEKFPEQKEYLLDLAEEIESQIRSLSGVDVEDVRKFLDKEWAWVKELCAEHPAELAEVEAARAARLAELRAEVEAKVAA
B8: L93V (designed binder)
chain: MTLQELLREEALRRAEAEAFRYALELLAEKFPEQKEYLLDLAEEIESQIRSLSGVDVEDVRKFLDKEWAWVKELLAEHPAELAEVEAARAARVAELRAEVEAKVAA
B9: A17E (designed binder)
chain: MTLQELLREEALRRAEEEAFRYALELLAEKFPEQKEYLLDLAEEIESQIRSLSGVDVEDVRKFLDKEWAWVKELLAEHPAELAEVEAARAARLAELRAEVEAKVAA
B10: A15T (designed binder)
chain: MTLQELLREEALRRTEAEAFRYALELLAEKFPEQKEYLLDLAEEIESQIRSLSGVDVEDVRKFLDKEWAWVKELLAEHPAELAEVEAARAARLAELRAEVEAKVAA
B11: E95G (designed binder)
chain: MTLQELLREEALRRAEAEAFRYALELLAEKFPEQKEYLLDLAEEIESQIRSLSGVDVEDVRKFLDKEWAWVKELLAEHPAELAEVEAARAARLAGLRAEVEAKVAA
B12: A23H (designed binder)
chain: MTLQELLREEALRRAEAEAFRYHLELLAEKFPEQKEYLLDLAEEIESQIRSLSGVDVEDVRKFLDKEWAWVKELLAEHPAELAEVEAARAARLAELRAEVEAKVAA
B13: E81S (designed binder)
chain: MTLQELLREEALRRAEAEAFRYALELLAEKFPEQKEYLLDLAEEIESQIRSLSGVDVEDVRKFLDKEWAWVKELLAEHPASLAEVEAARAARLAELRAEVEAKVAA
B14: A90N (designed binder)
chain: MTLQELLREEALRRAEAEAFRYALELLAEKFPEQKEYLLDLAEEIESQIRSLSGVDVEDVRKFLDKEWAWVKELLAEHPAELAEVEAARNARLAELRAEVEAKVAA
B15: M1L (designed binder)
chain: LTLQELLREEALRRAEAEAFRYALELLAEKFPEQKEYLLDLAEEIESQIRSLSGVDVEDVRKFLDKEWAWVKELLAEHPAELAEVEAARAARLAELRAEVEAKVAA
B16: D40V (designed binder)
chain: MTLQELLREEALRRAEAEAFRYALELLAEKFPEQKEYLLVLAEEIESQIRSLSGVDVEDVRKFLDKEWAWVKELLAEHPAELAEVEAARAARLAELRAEVEAKVAA
B17: L64E (designed binder)
chain: MTLQELLREEALRRAEAEAFRYALELLAEKFPEQKEYLLDLAEEIESQIRSLSGVDVEDVRKFEDKEWAWVKELLAEHPAELAEVEAARAARLAELRAEVEAKVAA
B18: E25K (designed binder)
chain: MTLQELLREEALRRAEAEAFRYALKLLAEKFPEQKEYLLDLAEEIESQIRSLSGVDVEDVRKFLDKEWAWVKELLAEHPAELAEVEAARAARLAELRAEVEAKVAA
B19: V104K (designed binder)
chain: MTLQELLREEALRRAEAEAFRYALELLAEKFPEQKEYLLDLAEEIESQIRSLSGVDVEDVRKFLDKEWAWVKELLAEHPAELAEVEAARAARLAELRAEVEAKKAA
B20: A91R (designed binder)
chain: MTLQELLREEALRRAEAEAFRYALELLAEKFPEQKEYLLDLAEEIESQIRSLSGVDVEDVRKFLDKEWAWVKELLAEHPAELAEVEAARARRLAELRAEVEAKVAA
B21: L93I (designed binder)
chain: MTLQELLREEALRRAEAEAFRYALELLAEKFPEQKEYLLDLAEEIESQIRSLSGVDVEDVRKFLDKEWAWVKELLAEHPAELAEVEAARAARIAELRAEVEAKVAA
B22: L75H (designed binder)
chain: MTLQELLREEALRRAEAEAFRYALELLAEKFPEQKEYLLDLAEEIESQIRSLSGVDVEDVRKFLDKEWAWVKELHAEHPAELAEVEAARAARLAELRAEVEAKVAA
B23: L27C (designed binder)
chain: MTLQELLREEALRRAEAEAFRYALELCAEKFPEQKEYLLDLAEEIESQIRSLSGVDVEDVRKFLDKEWAWVKELLAEHPAELAEVEAARAARLAELRAEVEAKVAA
B24: R8W (designed binder)
chain: MTLQELLWEEALRRAEAEAFRYALELLAEKFPEQKEYLLDLAEEIESQIRSLSGVDVEDVRKFLDKEWAWVKELLAEHPAELAEVEAARAARLAELRAEVEAKVAA
B25: V71C (designed binder)
chain: MTLQELLREEALRRAEAEAFRYALELLAEKFPEQKEYLLDLAEEIESQIRSLSGVDVEDVRKFLDKEWAWCKELLAEHPAELAEVEAARAARLAELRAEVEAKVAA

The test concerns the target T1, TNFR1. Briefly: yeast display SC50.
In the case of B1, the “apparent Kd (screen)” value was determined as 0.142 nM.

As to B2, the “apparent Kd (screen)” value stood at 15.2 nM.

With B3, the “apparent Kd (screen)” value came to 0.539 nM.

With B4, the “apparent Kd (screen)” value is 0.539 nM.

Regarding B5, the “apparent Kd (screen)” value came to 1.16 nM.

Take B6: the “apparent Kd (screen)” value came out at 0.593 nM.

Turning to B7, the “apparent Kd (screen)” value worked out at 0.653 nM.

With B8, the “apparent Kd (screen)” value amounted to 0.869 nM.

Take B9: the “apparent Kd (screen)” value turned out to be 0.229 nM.

Turning to B10, the “apparent Kd (screen)” value is 0.49 nM.

On to B11, for which the “apparent Kd (screen)” value is 0.653 nM.

Consider B12, for which the “apparent Kd (screen)” value turned out to be 1.27 nM.

As for B13, the “apparent Kd (screen)” value was 0.49 nM.

As for B14, the “apparent Kd (screen)” value stood at 0.653 nM.

As for B15, the “apparent Kd (screen)” value turned out to be 0.653 nM.

For B16, the “apparent Kd (screen)” value was 5.31 nM.

For B17, the “apparent Kd (screen)” value is 5.31 nM.

As to B18, the “apparent Kd (screen)” value worked out at 0.446 nM.

In the case of B19, the “apparent Kd (screen)” value amounted to 0.593 nM.

In the case of B20, the “apparent Kd (screen)” value was determined as 0.446 nM.

Take B21: the “apparent Kd (screen)” value was 0.539 nM.

For the molecule B22, the “apparent Kd (screen)” value came to 0.539 nM.

As for B23, the “apparent Kd (screen)” value was 0.539 nM.

Turning to B24, the “apparent Kd (screen)” value worked out at 0.539 nM.

Regarding B25, the “apparent Kd (screen)” value amounted to 0.653 nM.

Values taken from publication PMC12416549 (2024).
